# Laboratory results: the supplement of paper PMC9170038
# System: K4 kissing-loop RNA reporter
# Assay: apparent KD of K4 kissing-loop reporter; higher = weaker reporter binding
# Conditions: Eterna round: R107
# Protocol: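 RNA-MaP round R107: designed RNA switches with theophylline, tryptophan, arginine or FMN aptamers are transcribed on-chip within common flanks. They are titrated with a labelled K4 kissing-loop RNA reporter in RNA-MaP buffer (100 mM Tris pH 7.5, 80 mM KCl, 4 mM MgCl2), without ligand or with the indicated ligand. Median apparent KD per design.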
# [1] = input ligand: theophylline 20 uM
# [2] = input ligand: tryptophan 2.4 mM
# 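Note: bound reporter read as fluorescence of individual clusters on recovered sequencing chips by microscopy, with normalized cluster intensities fitted with a binding model.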
Sequence,apparent KD of K4 kissing-loop reporter (input ligand: FMN 200 uM),apparent KD of K4 kissing-loop reporter (input ligand: arginine 13.2 mM),apparent KD of K4 kissing-loop reporter (input ligand: none),apparent KD of K4 kissing-loop reporter [1],apparent KD of K4 kissing-loop reporter [2]
ACGCGCGCGAGUGAUGUUCGGAGCGGCUGGCAGGAUAUGCCGCAAGGCAGAAGGGUCGUGGCGCGUCCAGGGUAACCUGGACGCG [#2 Exclusion - FMN A Attempt #28 (HarryS)],190 nM,401 nM,466 nM,391 nM,455 nM
ACGCGCGUGCGCUGGAAAGCGCACGCGCGUCGAGGACCGGUACGGCCGCCACUCGCUCGCGCCGAGUGAUGUUCGGCCGGCGAAC [#2 SameState - Tryptophan_A Attempt #2 (HarryS)],342 nM,288 nM,303 nM,292 nM,645 nM
ACGUCCGGGUUAAUCGUGGGCGUGGUGGAUACCAGUUCUUUAAUGAACCCUUGGCAGCCACAUGAGUGAUGUUCAUGUGCGAUGA [KL-XTheo-A10 #analogue],100 nM,102 nM,96.2 nM,98.2 nM,95.4 nM
ACGUGCACCAGUGAUGUUGGAAAAUAUGAAGGAGCGGGAGAAAGCCCAGGUAGGUCGCAUAAUAGCACGAGCCACGAAAGUGGCA,233 nM,145 nM,178 nM,141 nM,131 nM
ACGUGCACGAGUGAUGUUUGAAAAUCUGAAGGAGCGGGCGAAAGCCCAGGUAGGUCGCAGAAUAGCACGAGCCACGAAAGUGGCA,202 nM,272 nM,319 nM,142 nM,191 nM
ACUGGAAUUGUACUCCAGUGAUGUUGGAGGCAGGAUAUCCAGUAAAGGAGAAGGGCCAUCGCGCUAUUUAGCCGCAGGCGGCUAA [Atrilazaed],251 nM,130 nM,126 nM,136 nM,131 nM
AGAACUGUCUUGGAUACCAGUGAUGUUGGUAUCGAUGUGUGAGUGCAAAGCGUCCCAGAGUGCCCUUGGCAGCUAAGACUGUUCA [#16 K4 Theophylline B Exclusion],277 nM,230 nM,269 nM,261 nM,259 nM
AGACGUUUGGGAAGGAGCGGAAUGUAAUACGGAACGCGUGGAGGUGCAGUGAUGUUGCAGAUCCAGGUAGGUCGCCCAAGGGACG [Esenraerve],94.1 nM,122 nM,99.1 nM,137 nM,91.1 nM
AGACUACCACACUGUCAAUAGACAGUGAACUAGGAUAUGCUGAUAAGCAGAAGGAGUGAUGUUCCUAAUAAGGUAGUCAUAUAAU [FmnAX 15 #SwitchBubble #StaticStem #K4Early],590 nM,482 nM,558 nM,637 nM,503 nM
AGACUACCACACUGUCAAUAGACAGUGAGCUAGGAUAUGCUGAUAAGCAGAAGGAGUGAUGUUCCUAGGUAGUCAAUAAAAUAAU [FmnAX 13 G29],447 nM,462 nM,435 nM,645 nM,493 nM
AGACUACCACACUGUCAAUAGACAGUGUACUAGGAUAUGCUGAUAAGCAGAAGGAGUGAUGUUCCUAGGUAGUCAAUAAAAUAAU [FmnAX 13 U28],439 nM,443 nM,494 nM,629 nM,574 nM
AGACUACUGACAGGAUAUAACAUCCUAGUCGUAUACCGAAAGGUAUACGAUUCCCUUCUAGUGAUGUUAGAAGGGUCGGUAGUCA [Omei KL FMN B Exc B v13],151 nM,93.4 nM,103 nM,98.9 nM,101 nM
AGACUACUGACAGGAUAUGGCAUCCUGGUCGUAUACCGAAAGGUAUACGAUUUUCUUCUAGUGAUGUUAGAAGGGUCGGUAGUCA [Omei KL FMN B Exc B v15],128 nM,86.3 nM,97.3 nM,89.2 nM,92.7 nM
AGACUACUGAUAGGAUAUAACAUACUAGCUCGUAUACCAAAGGUAUACGAGCUCCUUCUAGUGAUGUUAGAAGGGUCGGUAGUCA [Omei KL FMN B Exc B v4],107 nM,101 nM,106 nM,99.6 nM,102 nM
AGACUUCACCGAAGGAGCGACGUAGCCUAGUGAUGUUAGGCACGAGAGAAAUCUCGUAUACGUCAGGUAGGUCGCGGUGAAGUCA [Omei KL Arginine B SS C v1],196 nM,138 nM,161 nM,171 nM,161 nM
AGAGUACGAAAGUACUCCUCUACACACUGCCGAGGACCGGUACGGCCGCCACUCGAGUUGAGUGAUGUUCGACAGUGUGUAGAGA [Omei KL Tryp A SS C v2],114 nM,56.2 nM,79 nM,132 nM,128 nM
AGAGUGAUGUUUUUUUGAAGUGAGUAAUGUCGAGGACCGGUACGGCCGCCACUCGAGUGAUGUUAGUGAUGUUGAUGUAGUGAUG [?lmullin],138 nM,61.3 nM,72.4 nM,137 nM,127 nM
AGAGUUAUGAGAGGAUAUGCGGCUAGUACUCAAAGAGUACUAGCAGCGGAGUGAUGUUCUGCGAAAGCAGAAGGUUCAUAACUCA [#08 K4 FMN B Same State],214 nM,622 nM,1710 nM,1110 nM,1050 nM
AGAUAGGGCUGAAGGAGCGUCGGAGAAGAGAAGAAGGAAUCCAGUGAUGUUGGAUAGAUCCGACAGGUAGGUCGCAGUUUUAUGA [hbob_SS_Arginine_B_2t139],125 nM,127 nM,133 nM,178 nM,124 nM
AGAUGGAAUAGAAGGAGCGGCGCCAGUGAUGUUGGAUGCCGCGGGUGAAUCAUGUCAUAGUGCCAGGUAGGUCGCUAUUUCAGCU [Beinveve],104 nM,98.1 nM,96.6 nM,103 nM,90.8 nM
AGAUUCGACACGGCCGCCACUCGUGGAUCUUGGUUGAGAGAUGAAAUAGAGUGAUGUUCUAAUACGAGGACCGGGUGUUGAGUCU [KL-SSTryp-B23],221 nM,165 nM,200 nM,177 nM,174 nM
AGAUUCGACACGGCCGCCACUUCCAGUGGUCGGUGUCAUGGUGCACAUGAGUGAUGUUCAUGUGGAAGGACCGGGUGUUGAGUCU [KL-XTryp-B3 #analogue],111 nM,91.4 nM,103 nM,108 nM,165 nM

Sequence,apparent KD of K4 kissing-loop reporter (input ligand: FMN 200 uM),apparent KD of K4 kissing-loop reporter (input ligand: arginine 13.2 mM),apparent KD of K4 kissing-loop reporter (input ligand: none),apparent KD of K4 kissing-loop reporter [1],apparent KD of K4 kissing-loop reporter [2]
AGCCGAAAGGCGAGUGCUGUCACUCCGGAAGGAGCGCAGGAAACUGCAGGUAGGUCGCCGGAGUGAUGUUCCGGUGCAGCACUCA [Omei KL Arginine A Exc B v6],614 nM,317 nM,1120 nM,561 nM,800 nM
AGCGGCCAGUCGGCCGCCACUCCAAGCAGUGAUGUUGCUAAGUUUCUACAAGAGUGAUGUUCUUAGAGGACCGGGACUGAUGUGA [Exclusion Tryptophan B Gf 7],192 nM,240 nM,211 nM,241 nM,157 nM
AGCUCAGAGUGACUCGAUAAGAGUCACAAACGAGGACCGGUACGGCCGCCACUCGAAAUAAAGAGAGUGAUGUUCUCGCUGAGCA [FiskerMod 9 - Jieux - Same State Tryptophan A],200 nM,211 nM,223 nM,239 nM,795 nM
AGCUGUGGCAGAAGGAGCGGCAGUUAUUCUGAUAGUACUCUGAGUGAUGUUCAGAACGACUGUCAGGUAGGUCGCUGUCACAGCU [#02 K4 Arginine B Exclusion],252 nM,252 nM,234 nM,206 nM,218 nM
AGCUUGGGUUCGGCCGCCACUCCACCCUUAGAAGUGAUGUUUCUCAUGCAUACGCGUCGUCAGAUGAGGACCGGGAAUGUAGUUG [theeternabot_exclusion_KL_Trp_B_24],209 nM,444 nM,354 nM,351 nM,214 nM
AGGAGCGUGCGAUGGAAAUCGCACGCUCCUCGAGGACCGGUACGGCCGCCACUCGCUCGCGCCGAGUGAUGUUCGGCCGGCGAAG [#2 Same State - Tryptophan A Attempt #16 (HarryS)],85.6 nM,128 nM,85.7 nM,58.6 nM,82.8 nM
AGGAUCCGUCGACAAAAGUCGACAUAAUCCAAGGAUAUGACGAAAGUCAGAAGGUGGACAUAAGUCCAGUGAUGUUGGAGGAUCC [FmnA 16 #SwitchBubble #K4Late],766 nM,283 nM,427 nM,557 nM,351 nM
AGGAUGUAGUGAUGUUAUAUAAGAAGUAAACGAGGACCGGUACGGCCGCCACUCGAAGCGGCUACUAGCGCGUUGCGAGGUGCGC [ExTryptoA.Cc],391 nM,451 nM,372 nM,370 nM,286 nM
AGGCACGAGCAAGGAUAUCGAGUGGAGUGAUGUUCUGCCGACCCAGGACCGCAAGGUCCUGGGUCGCGAGAAGGUGCUCGUGCCU [#2 Same State - FMN A Attempt #5 (HarryS)],254 nM,642 nM,730 nM,676 nM,685 nM
AGGGCGGAGUGAUGUUCCGGCUCCCGAUUUAAGGAUAUUGCGUAAACAAGAAGGUAAAGGCGCAGCAAUAUUAUUUCGUAAGGCG [theeternabot_exclusion_KL_FMN_A_23],85.5 nM,103 nM,93.7 nM,111 nM,79.1 nM
AGGUACAAAAGUACCGCUAGAUCCACGGAAGGAGCGCCCGAAAGGGCAGGUAGGUCGCCGGGCAGUGAUGUUGCCGGAUCUAGCA [Omei KL Arginine A SS A v6],162 nM,163 nM,156 nM,181 nM,139 nM
AGGUCUGCACGAAGGAGCGCCCUGACAGGUUGCUGCCGUGGGCAGUGAUGUUGCUCAGUCCGGCAGGUAGGUCGCGUGCAGACCU,136 nM,109 nM,123 nM,97.5 nM,161 nM
AGUACAAUGGCGGCCGCCACUCAAUGGGCGACCGAAAGGUCGCAUCACUCAGUGAUGUUGAGUGAGAGGACCGGGCCUUUGUACA [Omei KL Tryp B SS B v8],733 nM,497 nM,611 nM,595 nM,270 nM
AGUAGUUGGACGGCCGCCACUGGAACAGCUUUGCCAAAGGCAGAGCACUAGAGUGAUGUUCUAGCUAGGACCGGGUCCAACUACA [whbob_SS_Tryp_B_t16],338 nM,89.7 nM,440 nM,249 nM,882 nM
AGUAUGUAAUAUGGCAUAUUUAGAACUGAAGGAGCGCCGAAUAAGGCAGGUAGGUCGCGGAAUCAUGAGUGAUGUUCAUGACUAU [KL-SSArg-A26],80.6 nM,116 nM,123 nM,126 nM,91.1 nM
AGUCCACUCUAAAGAGUGGACCUAAGGGAUACCAGUGAUGUUGGUCACCCUUGGCAGCCCACUGUCAUCGAUAAAGAUGGCAGCA,119 nM,106 nM,113 nM,117 nM,117 nM
AGUGAACGAGCGGCCGCCACUAAAUGAGUGAUGUUCGUGAGUAGUGCUGUUGUCAUGAUUGUUUUUAGGACCGGGUUCGAUGUUG [popplmullin],719 nM,735 nM,1270 nM,963 nM,719 nM
AGUGAGUGAUGUUCACUGUACGUGUCUGAAGGAGCGACAUCGAUGUCAGGUAGGUCGCAGACAUGUCAUCUAUGGUGCGUGACCA [Arg A SS t10],124 nM,116 nM,129 nM,163 nM,118 nM
AGUGAUGUAUGGCGGUUUGUCACUUAUAAUCAGGAUAUAUAAACAAAUAGAAGGGAUGGCGGAGUGAUGUUCCGCCGGCCGCCAU [FMN A Exl V5],170 nM,136 nM,167 nM,172 nM,149 nM
AGUGCACUGUCAGGAUAUAUACAGUGAUGUUGUGUAUGUCAGCAAGUCAAAGACUUGCUUUUCUGUGUAGAAGGGACUGUGUACA [Omei KL FMN B Exc A v2],387 nM,134 nM,154 nM,141 nM,148 nM
AGUGUGCAAAAGCACACUCAGUACAAGGACAAGGAUAUCUACUAAUAGAGAAGGUGUCCUUUCCUUAGUGAUGUUAAGGAGCUGA [Omei KL FMN A SS D v2],177 nM,295 nM,339 nM,347 nM,368 nM
